Experimental data from US20250353888A1 (ENANTIS S R O, published 2025).
Numbering of substitutions follows the chain as printed. Names may count otherwise. Values belong to the binder of their own block, whether it stands above or below them.

Biological target: FGF receptor 2b (FGFR2b) naturally expressed on 4MBr-5 rhesus monkey bronchial epithelial cells (rhesus monkey)
Experiment: cell-based or functional assay

ED50, proliferation of lung epithelial 4MBr-5 cells (resazurin): 0.4 ng/mL
B1: FGF10 single-point mutant V123I (ligand)
chain: MGSSHHHHHHSSGLVPRGSHMLGQDMVSPEATNSSSSSFSSPSSAGRHVRSYNHLQGDVRWRKLFSFTKYFLKIEKNGKVSGTKKENCPYSILEITSVEIGVVAIKAINSNYYLAMNKKGKLYGSKEFNNDCKLKERIEENGYNTYASFNWQHNGRQMYVALNGKGAPRRGQKTRRKNTSAHFLPMVVHS

ED50, proliferation of lung epithelial 4MBr-5 cells (resazurin): 0.2 ng/mL
B2: FGF10 single-point mutant Q175E (ligand)
chain: B1 chain with I105V, Q157E

ED50, proliferation of lung epithelial 4MBr-5 cells (resazurin): 1.6 ng/mL
B3: FGF10 single-point mutant N181D (ligand)
chain: B1 chain with I105V, N163D
